The record followed here is a protein production outcome set (Wang et al. 2014).

The data set is described as follows: label from the status in PepcDB records.
As to “MLINKTKRAEQNLNNLPFLALQAEQIEFLGSSAEFKTQIIELIRNAKKRIYVTALYWQKDEAGQEILDEIYRVKQENPHLDVKVLIDWHRAQRNLLGAEKSATNADWYCEQRQTYQLPDDPNMFFGVPINTREVFGVLHVKGFVFDDTVLYSGASINNVYLHQFEKYRYDRYQKITHAELADSMVNFINDYLLDFSAVYPLDVTNRPRTKEIRGNIRAYRKDLAQNGEYSLKSAVKLPNVLSVSPLFGLGASGNELNQVIEDLFLQVQKKLVICTPYFNFPRTLQHKIATLLENGKRVEIIVGDKVANDFYIPPEQPFKMAGALPYLYESNLRRFCEKFETQIESGQLVVRLWRDGDNTYHLKGVWVDDRYILLTGNNLNPRAWRLDAENGLLIYDPQQQLLAQVEKEQNQIRQHTKVLKHYTELEELNQYPEPVQKLLKKFARIKADKLVKMIL”, the protein production result is “not failed”.

For “MKKLINIILLSLIFVFCFNLKVLANDNLESSKEKIDNDSRIERFYDYINNLETEEDILGNMSAKEYIMNYLESGEDPITLKKIGASILSYIFRELNIVLKFIASILVIALLSALLKNLQDAFNIEEGVTQIAFFACYALLIMLLTKSFFISLNLGKEVLTSIIDFMNVIVPVIVMLIATSGGVTSAVTIDPIVLGAVSITPRIYTYFLFPLILAYFTLQFVNNLSSEFKIDRMCKFIKQVVMISQGFILTIFVGILTLRGMTADTLDAVAVKTVKFAVDNFVPIVGKAFSDAITTVAGYSLAMKSVITSLGVIVIVVIVIYPIIKIGLMAICFKLTSAVIEPVVDSKISSSVETVGEALFMIMSCIISVSIMFFIMASMMATAGNFIVGG”, the protein production result is “failed”.

In the case of “MQTLNDIYLAYLDSLNHQAFDELGTFVDDNVEHNGRPFGLSGYRDMLVKDFADIPDLRFEAEILVSDATRLAARLFFDCTPKSIFMDLPVNGRRVQFCEHVFYDFEQAKIRRVWSVLDKVAIERQLG”, the protein production entry was “not failed”.

Take “MSRSLGIPVKLLHEASGHIVTVELKSGELYRGSMIECEDNWNCQLEDITYTAKDGKVSQLEHVFIRGSKVRFMVIPDILKHAPMFKRLDARIKGKSSSLGVGRGRGAMRGKPAAGPGRGTGGRGAVPPVRR”: the protein production result is “failed”.

As for “MNIFKKIKNLSAEFKQNWFQYLILFTSISILNQFVFIPLFRYITTFVLQAGAIPFISYSNLVIILSEHPFVVFFLLIELALLLFVIYSQFALIILFIKNNFALKASISEFGQCLRHFRLGSLLLLAIYFLLVIPFANVVFRTPLLAKIKIPQFIIDYMTRSGILLAILIIFYLVIFVLAFRFLLTLPIMVIYKTTTREAMKKSAFLMKKNWRKVIGFFVPLGILAIVIMAINVGGAYLLQLIWDTFPGKFALIMATINLTLFQIISEVFLIWVSAVSLYFLVKLVTKNNNEIKEKVTNNKIILITIISIWSLAITGNIIENVFYLAGLDDHVPVTISHRGVNDKNGVQNTIESLKKTAKLKPDYVEIDVHETKDNQFVIMHDENLKKLTGKDKRPKELTLNQLTKLIAKEDGYKGKVVSLDQYMQAAQKLKQKLLIEIKTTPNDSNEFLVKFNKKYGHEILKNHYQLQSLDYRVVTKMQQLNPKIETLYIQPYNLIYPQSVADGYSMEYSTLSSDFIWQAHLQNHVVYAWTVNNKSEMKKMMYEHVDGIITDNISMLNTAIKEFQSRQSYANRILNYMMAFPILD”, the protein production result is given as “failed”.

Turning to “MSDLVSYHLDDGVATLTLNNGKVNAISPDVIIAFNAALDQAEKDRAIVIVTGQPGILSGGYDLKVMTSSAEAAINLVAQGSTLARRMLSHPFPIIVACPGHAVAKGAFLLLSADYRIGVAGPFSIGLNEVQIGMTMHHAGIELARDRLRKSAFNRSVINAEMFDPEGAMAAGFLDKVVSVEELQGAALAVAAQLKKINMNAHKKTKLKVRKGLLDTLDAAIEQDRQHML”, the protein production result is “not failed”.

On to “MKVVLAAIHPVPSPQAVPLANAFLKAYLGTDEELAARVAVTLCDFLRSTPADVCAAEILAHEPDAVGFSLYLWNTEESGRIAAELRRNRPGITIFAGGPQATADPLGTLTGGGYDFLILGEGEVPFLEVTARLADGRPFRGAPGTAWLDDGKLASRPQKPVALLDTIPSPFLSGIIEPGRYGGLLWQLSRGCDFACEYCFDYKGTKGVRRFSLERVDAELDFLVRHNVPQVFVLDSTFNVDAKRAKTILRMIRKRAPHIHFHFEVRSEFLDREMARLFAGITCSLQIGLQSADPAILKGIRRHFDPDDFRKRVALLNESGAVFGFDLIYGLPGDSLAGFRQSLDFALALYPNHLDIFPLAVLPGTPLAARAAQAGLDHLPAPPYALTATPTFPAPDMKRAARLAGACDIFYSRGKAVAWFNGVIAPLSLTPAEFLDAFGGWLARQGIEAREEALGDEAIWSLQRSFLAHIFADRRVRRLLPVALDLVDYHYHYAAALLAPPPELPTDRSLAGLNILDQVVCLAPSTRLARFSYEITDLLEAGNADLREICACFSPSPSWAVIYPRGNDIFTESLLESYFLLLEGLDGCCRAGDVVARLALSGEGAAEFLKFAAAEGIVTVRNCP”, for which the protein production result is listed as “failed”.

As for “GQDTGEDNLAIKGITTLNDLTMVNVSGPGMKGMVGMASRVFGAMSSAGVSIVLITQSSSEYSISFCIEADDKLKAQQVLADAFELELKDGLLEPVDFIDDVSIVTLVGDGMRTSRGVASRFFSSLAEVNVNIVAIAQGSSERAISAVIPEDKISEAIKACHENLFNSKYF”, the protein production entry was “not failed”.

Take “TDPDADRLGVEIRQPDGSYKNLSGNQIGAIIAKYILEAHKTAGTLPENAALAKSIVSTELVTKIAESYGATMFNVLTGFKFIAEKIQEFEEKHNHTYMFGFEESFGYLIKPFVRDKDAIQAVLLVAEIAAYYRSRGLTLADGIDEIYKEYGYFAE”: the protein production entry is recorded as “failed”.

Turning to “ANSQLRKQRDENAELAERLASLLKMLPAGVVELSPDGRVIAENLAAESLISGCYIGEYWEAVLERLLTQEADGSFALEAGGESRRLTLQYQDLPASGGRIVLIHDV”, the protein production result is on record as “failed”.

As to “MKHYSHGIDGLRSGLSPSAKPFAIGSSSSPAFSLKSEHEDSIWGDYTLDLSFLSSDDQRSGLDDDDSLSNLSRDVETNKEGLVLEEKIASSGKVLVNPNPSFSKLPEVLMKSSDVVGDAKLGLSCVSEKSSTESDLDESEEDSPCWKGMLSHKSLASGTKSMTSRRSTDDLSGFRKLNPLAPQFIPSSSKKKLETDGEKCEETSSSSLKKSLSSTFPSSSGEFDLTDPPLEDGRNDAAEKTSILTHNADEILGFVTSDSVSKTVSMLDSRNEFQPSKRLDPLAPVFVPSSAKLGPSVHEKLGDFVVNAYSTSALASSHVKSLDKGKVVTSSGEVGHSFKSQYGGHDFGSTSSYGPWIESEVGITEYAKLGSSNKSQGQRRLNPLARQFSLADAKQKPYGYGKNQAADDLSLVVNTSGLYIPARYREDHNVVDADLAQSSVNVERFLPNMSHGGSSLITPKADSNFGSTKWIAVEPNPTFSVKGNRDFKHHLPFHVVETAASSSTSDMKALPGPSPKMDVKKLLTTMHGLSELLTLAHGSESSDSPNAEELDLINSTVQNLNLYIQNNSQEHAGNQSVAQYNSYDLKLLPNKSKLSIRDHQFPTANNMTVDLDVKRKDKYSVVSRETVPGSRSYQYGATEDNGFGQVVPTNGYQQHQGVEQINQNALFYKSLWLKAEADRCLMVYETSLSNPYP”, the protein production result is reported as “failed”.

Consider “MSSSTNDYNDGNNNGVYPLSLYLSSLSGHQDIIHNPYNHQLKASPGHMVSAVPESLIDYMAFKSNNVVNQQGFEFPEVSKEIKKVVKKDRHSKIQTAQGIRDRRVRLSIGIARQFFDLQDMLGFDKASKTLDWLLKKSRKAIKEVVQAKNLNNDDEDFGNIGGDVEQEEEKEEDDNGDKSFVYGLSPGYGEEEVVCEATKAGIRKKKSELRNISSKGLGAKARGKAKERTKEMMAYDNPETASDITQSEIMDPFKRSIVFNEGEDMTHLFYKEPIEEFDNQESILTNMTLPTKMGQSYNQNNGILMLVDQSSSSNYNTFLPQNLDYSYDQNPFHDQTLYVVTDKNFPKGKVWIQDSFVN”, for which the protein production result is listed as “failed”.

With “MEEKQPQKTKEPSKEDEPQQKEMPTHLSLGAESKAEAKTPVLVETQTVDNANEKSEKPPENQKKLSDKDTVATKIKAWWRGTLVRRALLHAALSACIIQCWWRLILSKILKKRRQAALEAFSRKEWAAVTLQSQARMWRIRRRYCQVLNAVRIIQAYWRCRSCASRGFIKGQYRVTANQLHLQLEILLDSGPCIVTECIPFSIKE”, the protein production result was “failed”.

Consider “MCWPAPPRPSRRSSNGSPLLWQPGGYDRPPPPCRSLPHVCQNFVVRGCLMTISGGTFDPSICEMEPIATPGAIQPHGALMTARADSGRVAHASVNLGEILGLPAASVLGAPIGEVIGRVNEILLREARRSGSETPETIGSFRRSDGQLLHLHAFQSGDYMCLDIEPVRDEDGRLPPGARQSVIETFSSAMTQVELCELAVHGLQLVLGYDRVMAYRFGADGHGEVIAERRRQDLEPYLGLHYPASDIPQIARALYLRQRVGAIADACYRPVPLLGHPELDDGKPLDLTHSSLRSVSPVHLDYMQNMNTAASLTIGLADGDRLWGMLVCHNTTPRIAGPEWRAAAGMIGQVVSLLLSRLGEVENAAETLARQSTLSTLVERLSTGDTLAAAFVAADQLILDLVGASAAVVRLAGQELHFGRTPPVDAMQKVLDSLGRPSPLEVLSLDDVTLRHPELPELLAAGSGILLLPLTSGDGDLIAWFRPEHVQTITWGGNPAEHGTWNPATQRMRPRASFDAWKETVTGRSLPWTSAERNCARELGEAIAAEMAQRTRAELARLRHYDPLTGLANRSYLQERLAQDGQSAAALLFIDLDRFKAVNDSMGHGVGDGLLIEVARSLVATVRPHDLVVRLGGDEFVVLCHRLDAAGIVSLAERLRQVLEQPFEVAGRKCHISASIGIAMADSIGDLDLVRAADIAMYAAKKNGGNRGELFRPSLYEETTQLVELDNDMRGAIESEQFHLVYQPIFALNPETERLVGFEALLRWDHPLHGALQPGIFIPLAERLGHIHAMGNWVLRRAILQLQAFRSAGPELDLKMNVNVSPLQLARPDFLARLADLLAQVPDLPRHALCLEITETSLSDEAVSEALISIRALGVRIAIDDFGTGFSSLACLRRLPVDVAKLDRAFLGGGHTAAQDHRFFAAVTGLVHAADLKVVQEGIETLDQLALVRAAGADFAQGFHLAAPLSIAAALGLIAASRKE”, for which the protein production result was “failed”.

With “MIEQPYPSVADTDAAPPTAQGKIDQYFQISARGSTQRREVVAGITTFMAMVYAVFVVPGMLGKAGFDTSAVFVAVCLTTAFGSLLMGLWAKLPIAIGCAISLTAFMAFGLVLGQHLSPAVALGAVFLMGVVFTAISVTGVRTWILRNLPAGVAHGAGIGIGLFLLLIASNEVGLVIKNPGPGLPVSLGNITAFPVMMSILGLAAIFGLERRRVPGGILLVIVAISALGLVFDPSVKFTGIFALPTLSAPGHTSLIGAMDIRGALSAAVLPSVLALVMTAVFDATGTIRAVAGQANQLDATGRIHNGGRALTADSVSSIFSAFFGGAPAAAYIESTVGVAAGARTGLAAVTVGALFLAVMFFSPLAGLVPSYATAPALMYVGLLMLSSVSRLHMDDLVDALSGLVCAVFIVLTCNIVTGIMLGFCTLVIGRIVSGEWRKLNIGTVAIAVALAAFYAGGWAI”, the protein production result was “failed”.

In the case of “MGQTAFVVKTESYRLLWDCITYLDETTITKIKELGGLDAIALSHPHYYSTQVEWAETFDVPIYIHEDDKEWVMRPSSRIIYWSGESLQLADGITVHRLGGHFSGGSVLHWEEGNDGKGILLTGDIIQVVADERWVSFMYSYPNLIPLPARKVEEMVNRVKPLQFNRLYNAFHRVVKLEHHHHHH”, the protein production entry is “not failed”.

On to “MQHTEERELKKRLMNTARTVSEMTEVKEALARKKQTEAVRHAVEEIRMINEADYIVVMDMNHIRYTHPVSTSIGKKSEGADEEAAFAEHIYFSEAKGEIGTAVRAFYPVKDQDLNQIGVVLVGKTLPGIADILLHLKRDI”, for which the protein production result was “failed”.

Regarding “MSLILESLVTTLDEQGRINLAPLGPIVLPPQSPGGLPQFLLRPYEGSTTCDNLLASGNAVIHVIDDALLIAKTAIGKVDASDLVVPIPGLEDTHVRLKRCHRWFAVRVTQRAGTPPRHELTARCLASGLVDPFFGFNRAKHAVIEAAVAATRLHLLPPEEIEEELERARIAIEKTGGEPEREALQLIRRHVRESSISEGHHHHHH”, the protein production entry is “not failed”.
